Source: paper PMC5488163

Molecular target: free 17K‐apo(a) variant (purified recombinant apolipoprotein(a) with 17 KIV domains) (human)
Assay: co-IP

Substance: purified HCVcc, infectious hepatitis C virus particles (JFH1‐CS‐A4‐RLuc‐TM) (complex)
- percent of HCV RNAs coimmunoprecipitated: 39.9%
